Source: the supplement of paper PMC12764529
± gives the half width of the 95% confidence interval.

Tests used:
[1] = folding stability dG unfold (combined trypsin and chymotrypsin); higher = more stable
Procedure, shortened: (§1)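 Bayesian fitting of sequencing counts gave K50 for each design. Unfolding free energy followed by setting this against a sequence-predicted unfolded-state K50 and a shared folded-state K50, either per protease or with trypsin and chymotrypsin combined. The designs, under 80 residues and lacking cysteine, were digested in a PA-tagged cDNA display format at 11 threefold-diluted protease concentrations and without protease, and only those with AlphaFold2 dimer inter-PAE above 15 were kept.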

[2] = folding stability dG unfold from trypsin proteolysis; higher = more stable
Procedure, shortened: as §1

[3] = folding stability dG unfold from chymotrypsin proteolysis; higher = more stable
Procedure, shortened: as §1

| Sequence | folding stability dG unfold [1] | folding stability dG unfold [2] | folding stability dG unfold [3] |
| --- | --- | --- | --- |
| SAGGSAGGSAGGMTTVTTLETRPLPDGTTVTREVVTDENGTVVSTTVSRVSPEGVVTAESAGGSAGGSAGGS [r10_1014_JUSTAS] | 0.623 ± 0.055 kcal/mol | -0.0113 ± 0.05 kcal/mol | 0.97 ± 0.025 kcal/mol |
| SAGGTVEEIKEKLEEAGWEVVKVEKKEDGSITVTVRRKDGKELKIEIDLKNEEVRKALAELLPEEELSAGGS [r16_821_TrROS_Hall] | 2.95 ± 0.15 kcal/mol | 2.42 ± 0.19 kcal/mol | 3.22 ± 0.13 kcal/mol |
| SAGGIWIPVPNADWAVDFIIEFIDQFGPGAKIDKITVYNGGKEREITPGEPPKIPPGSWFEIDLEPKSAGGS [r16_267_TrROS] | 0.984 ± 0.075 kcal/mol | 0.698 ± 0.037 kcal/mol | 1.15 ± 0.085 kcal/mol |
| SAGGSAGGSGVSSVLESLPPSYTVTVEKLPESGKLVVTVTSPSGAAPSLTLDEELADLLKELLSAGGSAGGS [r12_174_JUSTAS] | 1.47 ± 0.093 kcal/mol | 2.2 ± 0.13 kcal/mol | 0.626 ± 0.03 kcal/mol |
| SAGGSAGGSAGGSVSSVSTTSSPVVDPETGPASTVTTHSVPGGPATTVVMTPDSTTTTGSAGGSAGGSAGGS [r10_384_JUSTAS] | 1.59 ± 0.074 kcal/mol | 1.92 ± 0.081 kcal/mol | 1.43 ± 0.038 kcal/mol |
| SAGGSAGGSAGGKKIIKVNLRIYDPVNPKVTVLPIEAPFDEIIKIAKEIAAPDQVVEISSAGGSAGGSAGGS [r10_397_TrMRF] | -0.654 ± 0.16 kcal/mol | -0.844 ± 0.16 kcal/mol | -0.506 ± 0.097 kcal/mol |
| SAGGMVEREFTLDGTRITITYVPSEGVILATFPDRTVTVPVPESLKDKSPEEVIELAKEFAKEYLESSAGGS [r16_215_JUSTAS] | 3.43 ± 0.058 kcal/mol | 4.14 ± 0.16 kcal/mol | 3.08 ± 0.041 kcal/mol |
| SAGGSAMKAKEIKRLKLKDRPLVVIFLENPEGGYSVLVIPLENPEKVEELLEELVKEGLLDEITPESAGGSA [r15_575_TrMRF] | 1.59 ± 0.074 kcal/mol | 1.03 ± 0.031 kcal/mol | 1.93 ± 0.082 kcal/mol |
| SAGGSWRVSVQFPDGKKIKIPEEPIQKIIQEYGIPPDPGDPERMVERIANRIADKYGYPVKNIEIDSAGGSA [r2_83_TrROS] | 0.0663 ± 0.15 kcal/mol | -0.377 ± 0.42 kcal/mol | 0.385 ± 0.13 kcal/mol |
| SMNIHIPILTRPDVDEETIEEEVEALAAELAEKLGLPEGVEVEIEPEPLPEDGVVYHVTLRVGDVEFKGESA [r9_776_TrMRF] | 0.0299 ± 0.33 kcal/mol | 0.168 ± 0.14 kcal/mol | 0.0835 ± 0.4 kcal/mol |
| SAGGSAEIEITVTVPPEMTEEEIKEQLEAELQRLTGEKVEIVDIRVEEVNGELTVTVKIKIEPAPPSAGGSA [r15_105_TrROS_Hall] | 2.85 ± 0.3 kcal/mol | 3.04 ± 0.28 kcal/mol | 2.71 ± 0.2 kcal/mol |
| SAGGSAGGSAGKKKILLKFKSAEEALEAIKKGKTIKLKNGKTVKVKKVTLDKNGYLLIELSAGGSAGGSAGG [r11_48_TrROS_Hall] | 2.44 ± 0.06 kcal/mol | 2.23 ± 0.034 kcal/mol | 2.547 ± 0.021 kcal/mol |
| SASESAVVEEEYTIDVTTVTPPGTPTTEPVRLTITRLPPNTVEVTLTAPDGKTVETRVIPLSVSLEELLSAG [r14_559_JUSTAS] | 0.493 ± 0.16 kcal/mol | 0.413 ± 0.14 kcal/mol | 0.134 ± 0.3 kcal/mol |
| SAGGSAGGSAGLPGAEKARKPKPKVKVKVTLTVLPDGTLVLRVTFEDGTTKTITLKLHPDLLSAGGSAGGSA [r18_192_TrMRF] | 3.08 ± 0.24 kcal/mol | 2.37 ± 0.13 kcal/mol | 3.55 ± 0.11 kcal/mol |
| SAGMKPEEVRVIEIPPGMTVEEIIEAIEKEGPLRIRVEGKELEFESKEDIEAAIRNAPEPVRIEVRRLSAGG [r19_95_TrROS_Hall] | 1 ± 0.089 kcal/mol | 0.865 ± 0.04 kcal/mol | 1.05 ± 0.092 kcal/mol |
| SAGGSAGGSAGMLIELTVETSVTTVSTPDATFTVVTLKEPGKPETLGTVVYDPATGSPALSAGGSAGGSAGG [r11_645_JUSTAS] | 0.168 ± 0.14 kcal/mol | 0.615 ± 0.036 kcal/mol | -0.959 ± 0.39 kcal/mol |
| SAMSVTISFDPKGPGGTLTITADPNSPQIEKFINELKKKLNLDIKSYTKTILPNGTVKVTLTYSKINLPSAG [r14_655_JUSTAS] | 4.51 ± 0.083 kcal/mol | 4.05 ± 0.11 kcal/mol | 4.657 ± 0.028 kcal/mol |
| SAGGSAGGKIRVEVEVEPLPGPEEGGRLLRVRVRVYNENGELLEEIEFPARSPEEAEERLRKAASAGGSAGG [r6_974_TrMRF] | 3.15 ± 0.14 kcal/mol | 2.05 ± 0.044 kcal/mol | 3.46 ± 0.082 kcal/mol |
| SAGGSAGGKKKVIEITVKITLFNENGEEVATFEAKITIIEDKETKEYYAVITFKDGSTLVIKLPSAGGSAGG [r6_923_TrROS_Hall] | 4.87 ± 0.47 kcal/mol | 3.69 ± 0.2 kcal/mol | 5.12 ± 0.2 kcal/mol |
| SAGGSAGGSAEELLKAFPNAEIVKYDPETKKFIIKLKDGSYLVVNLETGEIKLVSKEELEKASAGGSAGGSA [r18_381_TrROS_Hall] | 3.67 ± 0.076 kcal/mol | 2.66 ± 0.11 kcal/mol | 3.94 ± 0.066 kcal/mol |
| SAGGGMNEKVIEIEVTVTAPDGKVTTNPTTVVSNSLEEVKASIKASIPPNWSITVTVLKTKSLKEVLSSAGG [r13_513_JUSTAS] | 0.659 ± 0.095 kcal/mol | 0.667 ± 0.03 kcal/mol | 0.425 ± 0.081 kcal/mol |

| Sequence | folding stability dG unfold [1] | folding stability dG unfold [2] | folding stability dG unfold [3] |
| --- | --- | --- | --- |
| SAKKPLYLIIVKIGPDGKEIVIVAESEEEARKAAEEELRKLFPDLEIKEIKIIPLEKVKTKEEALELLKSAG [r14_900_TrROS_Hall] | 1.89 ± 0.16 kcal/mol | 2.16 ± 0.066 kcal/mol | 1.92 ± 0.07 kcal/mol |
| SAGGSAGGSAGMITIERIPGSGKLVITITDPGSGKVLTIPFDNADPKEALAKAKELLKKLSAGGSAGGSAGG [r17_386_JUSTAS] | 3.25 ± 0.075 kcal/mol | 3.25 ± 0.071 kcal/mol | 3.19 ± 0.048 kcal/mol |
| SAGGALANLSPEEIAALLESQGYEVTILEVEEKPGERIVKIRVTVKREDGTVESVEEIELTLPAPDKLSAGG [r13_566_JUSTAS] | 2.83 ± 0.095 kcal/mol | 3.7 ± 0.11 kcal/mol | 2.05 ± 0.03 kcal/mol |
| SMNIVEIEVEEKIIGDTTTITIPIKVNGPAVSEEEIKKIVEDIFKKKGLKINIKIEKDPNSGVITITIIESA [r9_717_JUSTAS] | 2.33 ± 0.19 kcal/mol | 2.01 ± 0.15 kcal/mol | 2.55 ± 0.12 kcal/mol |
| SAGGSAGGSAGGMVVRITTKDGRTITFPPGTSLEELRSLPADEITRVEVVEVEPVRVVEPSAGGSAGGSAGG [r7_190_TrROS_Hall] | 1.75 ± 0.082 kcal/mol | 1.45 ± 0.028 kcal/mol | 1.97 ± 0.051 kcal/mol |
| SAGGMSKEELAKKLAKELAEKLGIKEIKEIKIEKKKDKVKITIVFKENKKIIEIELKDGKIVKIKEKSAGGS [r16_171_TrROS_Hall] | 3.26 ± 0.16 kcal/mol | 3.36 ± 0.15 kcal/mol | 3.22 ± 0.16 kcal/mol |
| SAAEPPPVYLVRITVKVPPGVKPLPPGAVVTYDPATGTLTVYVLMTADEIDALAAAPGVEITDIEVIKLDSA [r9_827_TrROS_Hall] | 4.59 ± 0.24 kcal/mol | 3.16 ± 0.22 kcal/mol | 4.94 ± 0.28 kcal/mol |
| SASPRTITVPVTRFPDGTVRFTIETPDKTITLTFPPSATFEEALEKLSPDPDKKITLVEKDPTTVTVAESAG [r14_404_JUSTAS] | 0.873 ± 0.13 kcal/mol | 0.781 ± 0.051 kcal/mol | 0.852 ± 0.16 kcal/mol |
| SAGGSAMEIDIDPEKNEIRIYNPWNGQPHPFTIESIEPIDPDNKYFKFKIKYPDTGKEMPFMVQIDSAGGSA [r15_209_TrROS] | 1.08 ± 0.12 kcal/mol | 0.57 ± 0.042 kcal/mol | 1.4 ± 0.15 kcal/mol |
| SAGGSAGGNKPIMVRIKIWHDNGKTRRFFVQIPEGFDDPSELASELAKEFNKQYPNYRIEVEPFSAGGSAGG [r6_132_TrROS] | 2.78 ± 0.13 kcal/mol | 2.55 ± 0.052 kcal/mol | 2.86 ± 0.03 kcal/mol |
| SAGGSAGGSAMKPGEVIEIEITDKETGKKIKAEIVLKDGKLYIKIYNENGELIAEIEIEIKDSAGGSAGGSA [r18_264_TrROS_Hall] | 3.42 ± 0.14 kcal/mol | 2.83 ± 0.2 kcal/mol | 3.4 ± 0.12 kcal/mol |
| GMPYTVDVVIEEAEDGVIIPIKLSVDGALVAEAVAPVDPVTKKVVIKPGAASKEALDVALEKLKELGIEPGS [r1_455_TrMRF] | 0.162 ± 0.26 kcal/mol | -0.487 ± 0.4 kcal/mol | 0.537 ± 0.17 kcal/mol |
| SAATSSTSISIPASTTSLEDVRATLAALGYPPERIVALEVVKVEPGSTKITVTLERPDGTRRTVTVTSASAG [r14_30_JUSTAS] | 2.76 ± 0.058 kcal/mol | 3.14 ± 0.054 kcal/mol | 2.388 ± 0.011 kcal/mol |
| SAGGMSLHIPLPANNEELAEELAEELRDLYAAIPGTPGEVEVDIEPTPEGGYRLIVRFPDHVDEIPASAGGS [r16_356_TrMRF] | 1.34 ± 0.073 kcal/mol | 1.3 ± 0.014 kcal/mol | 1.19 ± 0.11 kcal/mol |
| SAGDTISIMIPPGMSGERAVNQIKYIAREQKENGKKRKITIWMPDPMRARFIKKALDEKGIPIEIEFWSAGG [r19_268_TrROS] | 1 ± 0.1 kcal/mol | 1.24 ± 0.049 kcal/mol | 0.766 ± 0.11 kcal/mol |
| SAGGSAGGSAGSPKGKPPKPTIEYEPITFEIPNPDGQGFELEISIIRMPGNGQEFIGISFSAGGSAGGSAGG [r11_1024_TrROS] | 1.58 ± 0.17 kcal/mol | 0.611 ± 0.086 kcal/mol | 1.86 ± 0.069 kcal/mol |
| SAGGSAGGSAMKVGEEVEVTVRIKVDGKEYEVKAKATLDEDGNVTLEVEIKAKEGKVEIEIESAGGSAGGSA [r18_428_TrROS_Hall] | 2.63 ± 0.13 kcal/mol | 3.42 ± 0.26 kcal/mol | 2.15 ± 0.14 kcal/mol |
| SAGGSAVTITVDDFEDIEDAEITLTRPDGRPVVARVRVEKGEGAPRVTVLWREPGSGRYRVETFPLSAGGSA [r15_1006_TrMRF] | 1.28 ± 0.07 kcal/mol | 0.925 ± 0.074 kcal/mol | 1.49 ± 0.1 kcal/mol |
| SAGGSAGGSAIVILLPWGFLIEIKNIRMEMKRDPGNGEPKMDMHIPIEIIPIPPPGDPAFQESAGGSAGGSA [r18_6_TrROS] | 2.79 ± 0.14 kcal/mol | 2.12 ± 0.054 kcal/mol | 3.17 ± 0.039 kcal/mol |
| SAGGGANIEGVEIYRIPDLDKYLVVVPSPAPEGAEITITVRLPNGPFTKTFVAKYRPLPGNRHVFVGSAGGS [r8_195_TrMRF] | 1.03 ± 0.12 kcal/mol | 1.23 ± 0.056 kcal/mol | 0.789 ± 0.15 kcal/mol |
